Numbered stars: 1 amine (or outer) side, 2 acyl side, 3 side chain; on linkers, the order of the positions; unused ones are H or OH. Bridge positions count the residues as written; N and C are the ends. Side chains are listed from the residue outwards. Ends that are not written are not given here. * marks the point of attachment. C20 diacid = O=C(O)CCCCCCCCCCCCCCCCCCC(=O)*; γGlu = O=C(O)[C@H](CCC(=O)[*:2])N[*:1]; AEEA = NCCOCCOCC(=O)O
Each binder was assayed against T1, human calcitonin receptor (human, UniProt P30988 25-474) (assay: cell-based or functional assay).
T1 sequence (looked up): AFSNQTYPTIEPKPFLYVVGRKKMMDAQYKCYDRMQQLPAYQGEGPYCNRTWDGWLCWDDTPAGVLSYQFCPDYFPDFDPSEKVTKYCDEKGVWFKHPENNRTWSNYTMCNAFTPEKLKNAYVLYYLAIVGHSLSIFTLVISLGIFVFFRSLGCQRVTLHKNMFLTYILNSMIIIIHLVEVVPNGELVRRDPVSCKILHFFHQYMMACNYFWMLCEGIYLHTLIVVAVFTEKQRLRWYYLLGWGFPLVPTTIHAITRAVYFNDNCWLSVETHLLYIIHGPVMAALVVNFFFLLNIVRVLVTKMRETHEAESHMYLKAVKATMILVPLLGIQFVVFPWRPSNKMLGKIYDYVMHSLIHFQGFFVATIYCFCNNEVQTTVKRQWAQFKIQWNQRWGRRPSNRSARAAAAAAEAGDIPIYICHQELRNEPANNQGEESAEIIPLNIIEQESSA

| Binder | hCTR funct. EC50 [nM] |
| --- | --- |
| K([AEEA-γGlu-C20 diacid])CNTATCATQRLANFLRHSSPNFGAIPSSTNVGPNTY-NH2 (disulfide 2-7; N-terminus assumed; SMILES CC[C@H](C)[C@H](NC(=O)[C@H](C)NC(=O)CNC(=O)[C@H](Cc1ccccc1)NC(=O)[C@H](CC(N)=O)NC(=O)[C@@H]1CCCN1C(=O)[C@H](CO)NC(=O)[C@H](CO)NC(=O)[C@H](Cc1c[nH]cn1)NC(=O)[C@H](CCCNC(=N)N)NC(=O)[C@H](CC(C)C)NC(=O)[C@H](Cc1ccccc1)NC(=O)[C@H](CC(N)=O)NC(=O)[C@H](C)NC(=O)[C@H](CC(C)C)NC(=O)[C@H](CCCNC(=N)N)NC(=O)[C@H](CCC(N)=O)NC(=O)[C@@H](NC(=O)[C@H](C)NC(=O)[C@@H]1CSSC[C@H](NC(=O)[C@@H](N)CCCCNC(=O)COCCOCCNC(=O)CC[C@H](NC(=O)CCCCCCCCCCCCCCCCCCC(=O)O)C(=O)O)C(=O)N[C@@H](CC(N)=O)C(=O)N[C@@H]([C@@H](C)O)C(=O)N[C@@H](C)C(=O)N[C@@H]([C@@H](C)O)C(=O)N1)[C@@H](C)O)C(=O)N1CCC[C@H]1C(=O)N[C@@H](CO)C(=O)N[C@@H](CO)C(=O)N[C@H](C(=O)N[C@@H](CC(N)=O)C(=O)N[C@H](C(=O)NCC(=O)N1CCC[C@H]1C(=O)N[C@@H](CC(N)=O)C(=O)N[C@H](C(=O)N[C@@H](Cc1ccc(O)cc1)C(N)=O)[C@@H](C)O)C(C)C)[C@@H](C)O, analogue of human amylin; also called compound 50) | 0.662 |
| K([AEEA-γGlu-C20 diacid])CNTATCATQRLAHFLRHSSPNFGAIPSSTNVGSNTY-NH2 (disulfide 2-7; N-terminus assumed; SMILES CC[C@H](C)[C@H](NC(=O)[C@H](C)NC(=O)CNC(=O)[C@H](Cc1ccccc1)NC(=O)[C@H](CC(N)=O)NC(=O)[C@@H]1CCCN1C(=O)[C@H](CO)NC(=O)[C@H](CO)NC(=O)[C@H](Cc1c[nH]cn1)NC(=O)[C@H](CCCNC(=N)N)NC(=O)[C@H](CC(C)C)NC(=O)[C@H](Cc1ccccc1)NC(=O)[C@H](Cc1c[nH]cn1)NC(=O)[C@H](C)NC(=O)[C@H](CC(C)C)NC(=O)[C@H](CCCNC(=N)N)NC(=O)[C@H](CCC(N)=O)NC(=O)[C@@H](NC(=O)[C@H](C)NC(=O)[C@@H]1CSSC[C@H](NC(=O)[C@@H](N)CCCCNC(=O)COCCOCCNC(=O)CC[C@H](NC(=O)CCCCCCCCCCCCCCCCCCC(=O)O)C(=O)O)C(=O)N[C@@H](CC(N)=O)C(=O)N[C@@H]([C@@H](C)O)C(=O)N[C@@H](C)C(=O)N[C@@H]([C@@H](C)O)C(=O)N1)[C@@H](C)O)C(=O)N1CCC[C@H]1C(=O)N[C@@H](CO)C(=O)N[C@@H](CO)C(=O)N[C@H](C(=O)N[C@@H](CC(N)=O)C(=O)N[C@H](C(=O)NCC(=O)N[C@@H](CO)C(=O)N[C@@H](CC(N)=O)C(=O)N[C@H](C(=O)N[C@@H](Cc1ccc(O)cc1)C(N)=O)[C@@H](C)O)C(C)C)[C@@H](C)O, analogue of human amylin; also called compound 69) | 1.25 |

Further lines, results first:

| hCTR funct. EC50 [nM] | Binder |
| --- | --- |
| 1.03 | K([AEEA-γGlu-C20 diacid])CNTATCATQRLANFLRHSSPNFGAIPSSTNVGPHTY-NH2 (disulfide 2-7; N-terminus assumed; SMILES CC[C@H](C)[C@H](NC(=O)[C@H](C)NC(=O)CNC(=O)[C@H](Cc1ccccc1)NC(=O)[C@H](CC(N)=O)NC(=O)[C@@H]1CCCN1C(=O)[C@H](CO)NC(=O)[C@H](CO)NC(=O)[C@H](Cc1c[nH]cn1)NC(=O)[C@H](CCCNC(=N)N)NC(=O)[C@H](CC(C)C)NC(=O)[C@H](Cc1ccccc1)NC(=O)[C@H](CC(N)=O)NC(=O)[C@H](C)NC(=O)[C@H](CC(C)C)NC(=O)[C@H](CCCNC(=N)N)NC(=O)[C@H](CCC(N)=O)NC(=O)[C@@H](NC(=O)[C@H](C)NC(=O)[C@@H]1CSSC[C@H](NC(=O)[C@@H](N)CCCCNC(=O)COCCOCCNC(=O)CC[C@H](NC(=O)CCCCCCCCCCCCCCCCCCC(=O)O)C(=O)O)C(=O)N[C@@H](CC(N)=O)C(=O)N[C@@H]([C@@H](C)O)C(=O)N[C@@H](C)C(=O)N[C@@H]([C@@H](C)O)C(=O)N1)[C@@H](C)O)C(=O)N1CCC[C@H]1C(=O)N[C@@H](CO)C(=O)N[C@@H](CO)C(=O)N[C@H](C(=O)N[C@@H](CC(N)=O)C(=O)N[C@H](C(=O)NCC(=O)N1CCC[C@H]1C(=O)N[C@@H](Cc1c[nH]cn1)C(=O)N[C@H](C(=O)N[C@@H](Cc1ccc(O)cc1)C(N)=O)[C@@H](C)O)C(C)C)[C@@H](C)O, analogue of human amylin; also called compound 58) |
| 0.554 | K([AEEA-γGlu-C20 diacid])CNTATCATQRLAHFLRHSSPNFGAIPSSTPVGSNTY-NH2 (disulfide 2-7; N-terminus assumed; SMILES CC[C@H](C)[C@H](NC(=O)[C@H](C)NC(=O)CNC(=O)[C@H](Cc1ccccc1)NC(=O)[C@H](CC(N)=O)NC(=O)[C@@H]1CCCN1C(=O)[C@H](CO)NC(=O)[C@H](CO)NC(=O)[C@H](Cc1c[nH]cn1)NC(=O)[C@H](CCCNC(=N)N)NC(=O)[C@H](CC(C)C)NC(=O)[C@H](Cc1ccccc1)NC(=O)[C@H](Cc1c[nH]cn1)NC(=O)[C@H](C)NC(=O)[C@H](CC(C)C)NC(=O)[C@H](CCCNC(=N)N)NC(=O)[C@H](CCC(N)=O)NC(=O)[C@@H](NC(=O)[C@H](C)NC(=O)[C@@H]1CSSC[C@H](NC(=O)[C@@H](N)CCCCNC(=O)COCCOCCNC(=O)CC[C@H](NC(=O)CCCCCCCCCCCCCCCCCCC(=O)O)C(=O)O)C(=O)N[C@@H](CC(N)=O)C(=O)N[C@@H]([C@@H](C)O)C(=O)N[C@@H](C)C(=O)N[C@@H]([C@@H](C)O)C(=O)N1)[C@@H](C)O)C(=O)N1CCC[C@H]1C(=O)N[C@@H](CO)C(=O)N[C@@H](CO)C(=O)N[C@H](C(=O)N1CCC[C@H]1C(=O)N[C@H](C(=O)NCC(=O)N[C@@H](CO)C(=O)N[C@@H](CC(N)=O)C(=O)N[C@H](C(=O)N[C@@H](Cc1ccc(O)cc1)C(N)=O)[C@@H](C)O)C(C)C)[C@@H](C)O, analogue of human amylin; also called compound 61) |
| 0.932 | K([AEEA-γGlu-C20 diacid])CNTATCATQRLAHFLRHSSPNFGAIPSSTNVGPNTY-NH2 (disulfide 2-7; N-terminus assumed; SMILES CC[C@H](C)[C@H](NC(=O)[C@H](C)NC(=O)CNC(=O)[C@H](Cc1ccccc1)NC(=O)[C@H](CC(N)=O)NC(=O)[C@@H]1CCCN1C(=O)[C@H](CO)NC(=O)[C@H](CO)NC(=O)[C@H](Cc1c[nH]cn1)NC(=O)[C@H](CCCNC(=N)N)NC(=O)[C@H](CC(C)C)NC(=O)[C@H](Cc1ccccc1)NC(=O)[C@H](Cc1c[nH]cn1)NC(=O)[C@H](C)NC(=O)[C@H](CC(C)C)NC(=O)[C@H](CCCNC(=N)N)NC(=O)[C@H](CCC(N)=O)NC(=O)[C@@H](NC(=O)[C@H](C)NC(=O)[C@@H]1CSSC[C@H](NC(=O)[C@@H](N)CCCCNC(=O)COCCOCCNC(=O)CC[C@H](NC(=O)CCCCCCCCCCCCCCCCCCC(=O)O)C(=O)O)C(=O)N[C@@H](CC(N)=O)C(=O)N[C@@H]([C@@H](C)O)C(=O)N[C@@H](C)C(=O)N[C@@H]([C@@H](C)O)C(=O)N1)[C@@H](C)O)C(=O)N1CCC[C@H]1C(=O)N[C@@H](CO)C(=O)N[C@@H](CO)C(=O)N[C@H](C(=O)N[C@@H](CC(N)=O)C(=O)N[C@H](C(=O)NCC(=O)N1CCC[C@H]1C(=O)N[C@@H](CC(N)=O)C(=O)N[C@H](C(=O)N[C@@H](Cc1ccc(O)cc1)C(N)=O)[C@@H](C)O)C(C)C)[C@@H](C)O, analogue of human amylin; also called compound 68) |

From patent publication US20140087995A1 (published 2014)
